The text below walks through data of FireProtDB (doi:10.1021/bi0362267).

Usually Tm stands for the temperature at the midpoint of the melting transition.

For the data set the following is noted: Bacillus amyloliquefaciens, pH 6.3, Thermal, CD, Mes 50 mM, whole UniProt chain shown.

B1: Ribonuclease wild type, P00648 (protein)
chain: MMKMEGIALKKRLSWISVCLLVLVSAAGMLFSTAAKTETSSHKAHTEAQVINTFDGVADYLQTYHKLPDNYITKSEAQALGWVASKGNLADVAPGKSIGGDIFSNREGKLPGKSGRTWREADINYTSGFRNSDRILYSSDWLIYKTTDHYQTFTKIR
For the protein B1, the Tm stood at 52.2 °C and the “unfolding enthalpy (van 't Hoff)” value was found to be 574 kJ/mol. The unfolding free energy (25 °C) is 39.7 kJ/mol.
